Test results reported in article PMC1666580 (The Journal of Cell Biology, 2006).

Target: T1, bacterially expressed human SDC1 ectodomain (hS1ED) (human, UniProt P18827 23-254)
T1 sequence (looked up): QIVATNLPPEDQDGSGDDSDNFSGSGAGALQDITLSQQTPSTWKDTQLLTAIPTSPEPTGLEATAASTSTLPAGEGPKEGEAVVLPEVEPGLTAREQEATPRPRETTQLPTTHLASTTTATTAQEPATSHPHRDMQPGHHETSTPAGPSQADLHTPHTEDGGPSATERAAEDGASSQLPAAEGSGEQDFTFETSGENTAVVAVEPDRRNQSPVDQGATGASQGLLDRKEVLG
Experiment: pull-down

B1: lacritin-intein fusion protein (lacritin coupled to chitin beads via chitin-binding intein) (ligand, human, UniProt Q9GZZ8 20-138, looked up)
chain: EDASSDSTGADPAQEAGTSKPNEEISGPAEPASPPETTTTAQETSAAAVQGTAKVTSSRQELNPLKSIVEKSILLTEQALAKAGKGMHGGVPGGKQFIENGSEFAQKLLKKFSLLKPWA
B1: binds.
